Experimental data from publication PMC10484734, “TLK1-mediated RAD54 phosphorylation spatio-temporally regulates Homologous Recombination Repair” (Nucleic Acids Research, 2023).
Numbering of substitutions follows the chain as printed.

Key:
[1] = biological target: T1, RAD54-T700D, recombinant (human, UniProt Q92698 1-747, T700D); experiment: pull-down; purified RAD54 forms with RAD51; reactions eluted from beads, eluate and supernatant on silver-stained gels, quantified; which protein was held on the beads is not told; conditions: both partners purified
T1 construct: human RAD54 (RAD54L) with the phosphomimic change T700D; also called purified RAD54-T700D; CTD mutant; source: recombinant, purified
T1 sequence (looked up): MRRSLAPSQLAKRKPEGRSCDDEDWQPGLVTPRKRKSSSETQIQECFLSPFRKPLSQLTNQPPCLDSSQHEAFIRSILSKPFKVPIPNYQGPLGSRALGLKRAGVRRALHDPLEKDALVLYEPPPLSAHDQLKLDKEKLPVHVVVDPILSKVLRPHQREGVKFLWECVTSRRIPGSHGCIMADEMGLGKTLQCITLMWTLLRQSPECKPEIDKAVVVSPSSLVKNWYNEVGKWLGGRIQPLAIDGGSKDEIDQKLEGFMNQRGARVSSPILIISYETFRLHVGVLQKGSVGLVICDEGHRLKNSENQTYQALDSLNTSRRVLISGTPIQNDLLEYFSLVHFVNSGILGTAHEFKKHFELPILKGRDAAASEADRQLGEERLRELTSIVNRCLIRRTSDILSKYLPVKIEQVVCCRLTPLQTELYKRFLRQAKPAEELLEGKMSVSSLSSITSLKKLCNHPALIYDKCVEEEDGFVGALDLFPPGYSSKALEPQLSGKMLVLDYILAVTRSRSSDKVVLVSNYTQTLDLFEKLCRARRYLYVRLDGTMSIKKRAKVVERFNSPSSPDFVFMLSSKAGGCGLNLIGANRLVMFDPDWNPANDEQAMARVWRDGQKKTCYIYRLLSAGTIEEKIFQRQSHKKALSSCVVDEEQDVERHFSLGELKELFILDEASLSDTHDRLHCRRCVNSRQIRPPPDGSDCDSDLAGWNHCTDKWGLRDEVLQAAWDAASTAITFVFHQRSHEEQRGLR

[2] = biological target: T2, RAD54-T41, T59D (RAD54-T2D), recombinant (human, UniProt Q92698 1-747, T41D | T59D); experiment: as above; conditions: both partners purified
T2 construct: human RAD54 (RAD54L) with the phosphomimic changes T41D and T59D; also called NTD phosphomimic; source: recombinant, purified
T2 sequence (looked up): T1 sequence (looked up) with T41D, T59D, D700T

B1: recombinant human RAD51 (natural protein, UniProt Q06609 1-339, looked up)
chain: MAMQMQLEANADTSVEEESFGPQPISRLEQCGINANDVKKLEEAGFHTVEAVAYAPKKELINIKGISEAKADKILAEAAKLVPMGFTTATEFHQRRSEIIQITTGSKELDKLLQGGIETGSITEMFGEFRTGKTQICHTLAVTCQLPIDRGGGEGKAMYIDTEGTFRPERLLAVAERYGLSGSDVLDNVAYARAFNTDHQTQLLYQASAMMVESRYALLIVDSATALYRTDYSGRGELSARQMHLARFLRMLLRLADEFGVAVVITNQVVAQVDGAAMFAADPKKPIGGNIIAHASTTRLYLRKGRGETRICKIYDSPCLPEAEAMFAINADGVGDAKD
notes: human RAD51 recombinase; also called rc-RAD51
binding result [1]: binds | binding result [2]: binds
